Source: paper PMC3188500

Molecular target: TATA binding protein (TBP) (UniProt P20226)
Assay: fluorescence (FAM/BHQ transcription factor beacon titration)
Settings: 5 mM MgCl2; no depletant; value stated in text next to ref 35, may come from it; internal BHQ after the T at position 20; 50 mM sodium phosphate pH 7.0, 150 mM NaCl, 5 mM MgCl2, 25 °C; 10 nM labeled TF switch

UniProt P20226, sequence (P20226 whole entry): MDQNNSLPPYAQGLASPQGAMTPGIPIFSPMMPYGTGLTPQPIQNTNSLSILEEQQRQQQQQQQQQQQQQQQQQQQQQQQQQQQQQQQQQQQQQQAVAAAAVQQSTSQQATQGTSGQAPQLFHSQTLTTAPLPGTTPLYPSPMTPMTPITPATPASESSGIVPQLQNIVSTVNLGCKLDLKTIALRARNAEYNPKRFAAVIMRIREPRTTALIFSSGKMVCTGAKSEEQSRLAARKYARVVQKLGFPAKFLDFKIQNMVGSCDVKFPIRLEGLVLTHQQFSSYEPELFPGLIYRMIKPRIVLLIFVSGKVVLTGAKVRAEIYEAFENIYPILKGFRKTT

“TACTTTTATATAAATAAGTTGTGATTTTTATATATTTCAC [TFprobe (transcription factor beacon/switch)]” was tested, and the Kd was 45 nM.
